Laboratory results as given in patent US20230110085A1.

Key:
[1] = biological target: human IgG (IVIg, Gamunex) (human); test: cell-based or functional assay
[2] = biological target: purified human IgM (#16-16-090713-M, Athens Research & Technology) (human); test: cell-based or functional assay
[3] = biological target: purified human IgM (#16-16-090713-M, Athens Research & Technology) (human); test: Western blot of DTT-reduced purified human IgM titrated 1250 to 4.8 ng/well

Substance	cleavage on SDS-PAGE (full cleavage) [1] [µg/mL]	cleavage on SDS-PAGE (to scIgG) [1] [µg/mL]	cleavage on SDS-PAGE [2] [µg/mL]	digestion on SDS-PAGE gel [2] [µg/mL]	detection limit (lowest IgM amount with visible band) [3] [ng/well]
imlifidase (IdeS), immunoglobulin G-degrading cysteine protease of S. pyogenes (enzyme)	2	0.2	> 200	> 200	
PE-conjugated donkey anti-human IgM (#IGM-PEC1, One Lambda) (antibody)					19
